This note sets out measurements from the supplement of paper PMC9112550, “Optimization of the antimicrobial peptide Bac7 by deep mutational scanning” (BMC Biology, 2022).

The series concerns Escherichia coli TOP10. The experiment in a line: shrunken log2 fold change of peptide-encoding DNA abundance (4.5 h post-induction vs induction); higher = less antimicrobial activity (less host growth inhibition). Conditions: time post-induction: 4.5 h; library: site-saturation at positions 5, 18, 19, 20.
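Note: peptides expressed intracellularly from a pBAD plasmid library in pooled LB shake-flask culture, induced with 0.3% L-arabinose, DNA abundance read by NGS, three biological replicates, DESeq2 with apeglm shrinkage.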

As to RRIRSRPPRLPRPRPRPHCGPRP, the “shrunken log2 fold change” value is -0.0953. Turning to RRIRHRPPRLPRPRPRPGPRPRP, the “shrunken log2 fold change” value was determined as 0.417. On to RRIRSRPPRLPRPRPRPDKYPRP, for which the “shrunken log2 fold change” value is -0.845. Regarding RRIRDRPPRLPRPRPRPGVNPRP, the “shrunken log2 fold change” value was 0.148. As to RRIRERPPRLPRPRPRPDQWPRP, the “shrunken log2 fold change” value was 0.189. For RRIRQRPPRLPRPRPRPEKPPRP, the “shrunken log2 fold change” value was -0.129. In the case of RRIRARPPRLPRPRPRPGFQPRP, the “shrunken log2 fold change” value was 0.092. For RRIRWRPPRLPRPRPRPYPDPRP, the “shrunken log2 fold change” value is -0.106. As for RRIRPRPPRLPRPRPRPGSFPRP, the figure is 0.0277; as for RRIRDRPPRLPRPRPRPQNAPRP, -0.111; as for RRIRFRPPRLPRPRPRPTRRPRP, 0.928. The same measure for RRIRWRPPRLPRPRPRPVMIPRP: 0.0436; for RRIRKRPPRLPRPRPRPYDGPRP: -0.0976. On to RRIRERPPRLPRPRPRPQMCPRP, for which the “shrunken log2 fold change” value was 0.0746. The same measure for RRIRARPPRLPRPRPRPLQRPRP: 0.58. In the case of RRIRNRPPRLPRPRPRPQQWPRP, the “shrunken log2 fold change” value was -0.0346. The same measure for RRIRGRPPRLPRPRPRPDIFPRP: 0.837. As to RRIRNRPPRLPRPRPRPHERPRP, the “shrunken log2 fold change” value was -0.13. Take RRIRCRPPRLPRPRPRPGCCPRP: the “shrunken log2 fold change” value came to 0.137. Take RRIRDRPPRLPRPRPRPPLHPRP: the “shrunken log2 fold change” value is 0.177. On to RRIRARPPRLPRPRPRPGWFPRP, for which the “shrunken log2 fold change” value was 0.524. On to RRIRWRPPRLPRPRPRPANGPRP, for which the “shrunken log2 fold change” value is -0.186. The same measure for RRIRERPPRLPRPRPRPRPGPRP: 0.464; for RRIRKRPPRLPRPRPRPRPHPRP: 0.762; for RRIRARPPRLPRPRPRPMYHPRP: -0.215. As for RRIRIRPPRLPRPRPRPAGIPRP, the “shrunken log2 fold change” value was -0.437. Consider RRIRERPPRLPRPRPRPVLFPRP, for which the “shrunken log2 fold change” value was -0.141.

As for RRIRCRPPRLPRPRPRPNFQPRP, the “shrunken log2 fold change” value was -0.438.

Take RRIRRRPPRLPRPRPRPWRCPRP: the “shrunken log2 fold change” value worked out at 0.175. Turning to RRIRNRPPRLPRPRPRPQAAPRP, the “shrunken log2 fold change” value is -0.0424. Consider RRIRVRPPRLPRPRPRPDYTPRP, for which the “shrunken log2 fold change” value was -0.495. The same measure for RRIRPRPPRLPRPRPRPIMKPRP: -0.411; for RRIRLRPPRLPRPRPRPPFEPRP: 0.182; for RRIRMRPPRLPRPRPRPEQGPRP: 0.493. On to RRIRARPPRLPRPRPRPIGWPRP, for which the “shrunken log2 fold change” value worked out at 0.488. For the sequence RRIRCRPPRLPRPRPRPDSIPRP, the “shrunken log2 fold change” value was -0.0365. Take RRIRRRPPRLPRPRPRPVQYPRP: the “shrunken log2 fold change” value was -0.00909. As to RRIRDRPPRLPRPRPRPDTAPRP, the “shrunken log2 fold change” value was -0.0593.

Take RRIRFRPPRLPRPRPRPFPYPRP: the “shrunken log2 fold change” value was -0.445. RRIRKRPPRLPRPRPRPGPMPRP: the “shrunken log2 fold change” value is 0.595. The same measure for RRIRERPPRLPRPRPRPQERPRP: 0.061; for RRIRGRPPRLPRPRPRPWIRPRP: -0.164. As for RRIRGRPPRLPRPRPRPFTHPRP, the “shrunken log2 fold change” value is 0.0753. For the sequence RRIRYRPPRLPRPRPRPNSQPRP, the “shrunken log2 fold change” value is -0.85.

RRIRSRPPRLPRPRPRPRRAPRP: the “shrunken log2 fold change” value came out at 0.41. Turning to RRIRQRPPRLPRPRPRPTTLPRP, the “shrunken log2 fold change” value is -0.196. As for RRIRRRPPRLPRPRPRPQHCPRP, the figure is -0.0448. For RRIRSRPPRLPRPRPRPTNMPRP, the “shrunken log2 fold change” value was -0.465. The same measure for RRIRQRPPRLPRPRPRPEWDPRP: 0.0586; for RRIRMRPPRLPRPRPRPIVQPRP: -0.0131; for RRIRARPPRLPRPRPRPIWAPRP: 0.439. The same measure for RRIRERPPRLPRPRPRPFSVPRP: -0.213; for RRIRGRPPRLPRPRPRPVLFPRP: 0.752. Regarding RRIRLRPPRLPRPRPRPDHPPRP, the “shrunken log2 fold change” value is -0.123.

For RRIRQRPPRLPRPRPRPQPVPRP, the “shrunken log2 fold change” value stood at 0.00167. RRIRNRPPRLPRPRPRPCNSPRP: the “shrunken log2 fold change” value is -0.0484. As for RRIRYRPPRLPRPRPRPCKHPRP, the figure is -0.0625. With RRIRARPPRLPRPRPRPPHKPRP, the “shrunken log2 fold change” value amounted to 0.996. On to RRIRYRPPRLPRPRPRPSSQPRP, for which the “shrunken log2 fold change” value was -0.261. The same measure for RRIRCRPPRLPRPRPRPEKIPRP: 0.117; for RRIRVRPPRLPRPRPRPKLFPRP: 0.0793; for RRIRCRPPRLPRPRPRPWDPPRP: -0.211. RRIRHRPPRLPRPRPRPDPAPRP: the “shrunken log2 fold change” value was determined as 0.189. As for RRIRLRPPRLPRPRPRPMQPPRP, the figure is 0.303; as for RRIRCRPPRLPRPRPRPINNPRP, -0.633. Regarding RRIRHRPPRLPRPRPRPAKRPRP, the “shrunken log2 fold change” value is -0.132. With RRIRRRPPRLPRPRPRPMWIPRP, the “shrunken log2 fold change” value was -0.137. As for RRIRPRPPRLPRPRPRPTFNPRP, the “shrunken log2 fold change” value is -0.155.

With RRIRDRPPRLPRPRPRPIFLPRP, the “shrunken log2 fold change” value is -0.205. As for RRIRVRPPRLPRPRPRPLVYPRP, the figure is -0.193; as for RRIRPRPPRLPRPRPRPWPIPRP, 0.054; as for RRIRDRPPRLPRPRPRPADGPRP, -0.00193. As for RRIRLRPPRLPRPRPRPFWKPRP, the figure is 0.379; as for RRIRSRPPRLPRPRPRPGETPRP, 0.488.

As to RRIRQRPPRLPRPRPRPCPKPRP, the “shrunken log2 fold change” value amounted to 4.03.

With RRIRNRPPRLPRPRPRPASHPRP, the “shrunken log2 fold change” value amounted to 0.0783. For RRIRRRPPRLPRPRPRPNKDPRP, the “shrunken log2 fold change” value amounted to 0.202. In the case of RRIRNRPPRLPRPRPRPAEAPRP, the “shrunken log2 fold change” value worked out at 0.057. For the sequence RRIRQRPPRLPRPRPRPHTMPRP, the “shrunken log2 fold change” value was -0.9.

For RRIRHRPPRLPRPRPRPLRCPRP, the “shrunken log2 fold change” value was 0.0647. As for RRIRCRPPRLPRPRPRPDSNPRP, the “shrunken log2 fold change” value is -0.488.

RRIRLRPPRLPRPRPRPQLEPRP: the “shrunken log2 fold change” value is -0.0629. As for RRIRSRPPRLPRPRPRPGEGPRP, the figure is 0.367. On to RRIRKRPPRLPRPRPRPELEPRP, for which the “shrunken log2 fold change” value was found to be 0.0875. On to RRIRPRPPRLPRPRPRPFPAPRP, for which the “shrunken log2 fold change” value was -0.161. Consider RRIRYRPPRLPRPRPRPGVHPRP, for which the “shrunken log2 fold change” value is -0.452.

Take RRIRYRPPRLPRPRPRPMMYPRP: the “shrunken log2 fold change” value is -0.00674. Take RRIRYRPPRLPRPRPRPGPVPRP: the “shrunken log2 fold change” value was -0.16.

With RRIRLRPPRLPRPRPRPGNFPRP, the “shrunken log2 fold change” value was -0.122. Regarding RRIRFRPPRLPRPRPRPFLWPRP, the “shrunken log2 fold change” value is -0.0874. In the case of RRIRSRPPRLPRPRPRPHEKPRP, the “shrunken log2 fold change” value was determined as 0.0101.
